Assay: soluble on expression in E. coli; label from the status in PepcDB or PDB records

| Sequence | soluble on expression in E. coli |
| --- | --- |
| MAHHHHHHMSEARQIQSMIDFIEREAQEKADELNSAAQEEYDVEKMRLVEAEKVKVRANNEQKLKQVDVGRRVARANFSKAQRLRIMEAQSNIVEQLKENIKTKLMAFVKNTDSYKKLLVSILHEALSAVRTDAIVYTCKNDEPIVTGMLSELEQWYLKTVGTRVSIRMGKEYLNAEEALGGVVVKSHDGHIVCNWTLSSRMRNCVNDQLPTIRYYLFNPESSI | not soluble |
| MAHHHHHHMSEKKEYINPAGLRLDGRRPQESRRMTLEFGKVLGCDGCCTVMSGLATVCASVYGPREVTNRLESKYNECIITCEVAIAAFAGEKRRAPQRRSKLSEEMSAAVLEVARSVVLLSQYPNSQIHICVEVLRQDGSDKAACINAACLALVDACVAMRDIVYAQTVGLIHAVDVVDLTTEEMRSQCPTICIAVKGHDPSSIVWMESNCRVTSEVVSRLVTVAQKSSEGVFAAALRGPLEEHAAAILKLQGNLGNGD | not soluble |
| MAHHHHHHMSENLDRYDAYRLFCISAAAVNGDEDELQDRLGIVEEYLTEYEGLCRAFHKAQRTTHAQEIRRLLADEAEERRFLKEDADSLPWKLFINMSFACAQELVVEHERKMRQGIVAAYTASFTELLFPYETLQRMRLTWEALDSLALKACIVGRYGVREGQLARTSIPGYTAGSTFPPSARAAAAADAVRSLLAEEHQERQEMIEARGQHVAAALLILASSEKFRSFASASVCGMGFLPQLRNNLASTARQALDNSATRIQSAYRGYRVRAVRARS | not soluble |
| MAHHHHHHMSFCDFVVVTNNSVEIFKISFDNLIITPIKKHFIKSKHCWYDEKSSYICLLSANKSNVILPYLLSNNNVIKLSKIELNILKNDNINKNDIEIITLYNETYCIHKDFKNGRISFRCLSSTIYFDYVLDLFYNGVIETFSLDNLFGVFNHTNQYVYLFDIKYNKKKTTIHSFDDNNNHTINISYLTTPKQFKTQINFNHMAFEPYNLLIDNHYGNVYKVKVDYDVLMLQICQHFSNLVRT | soluble |
| MAHHHHHHMSGRAGRRGLDRVGVVIAMVDEAVEPETLKQLTGGGADVLNSSFHLTYNMVLNLLRVEDVDPEFMMHRSFAQFQRLRNRPVLEKRAEALTEEIESIHVEHEEVFRQFTLCQELLANRRKQLADILKQPTFLKRFTHSGRLLRIRRAADDVLFNWGICRAFHAKVPNADPKSPSEFSVDVAVICLKANAAKPTSLLPCHVNDFTTSTADLYTLTFDFTDIEGVARFRVNLPAEPDTESGRAQMVQTLSKLHRQYDDKVPLLTAEEMGVDDPQFEKLRVQVERLEAQLAENEFVQNPTKELESDFERFTHRAKLEKELNDIREELNQASRAIFSEELKQMMRVLRRLDYIDKDNVILRKARVACEITTTDENEILLTELLFKGVLNSMETEMIVALMSCLVNVHRTPDGFSLPEEFQQPLKELNEIVSRIATVSIESGVLQEGGVGVERTMPSLMEVTYMWAKGAKFVDIMSKTSAYEGEIVRMMRRLEEQLRQMAGAARSPAIGSMELHDKFLKGIQLIKRDIVFVSSLYL | not soluble |
| MAHHHHHHMSHIYDMLGINVEKLKTKKKQKEKISKKQLNFLKDNDNLFSLPTTSKIISLNNKNVSVWRLVKFRSKCRNDDLILTKWSKIGYKNDKKEFNEDKIEDDNTFEKFNKKINIIKYNDDLYYREIQPLNTGWTKEETDYLFNLCEKYDCHFIIVNDVYDIKYKRTIEEIKERFYTVTKKVMEDKFDQQIKLEEAKKIKNNNDILKLKEAKAKHPLIKFTYNMQADLERKNIIHKTYTVSKKDVMLEETTLENIKKFESKIKLELKKAADMKKLKKKFELTTEEIVPITKLPEEDKEAKNIYSARYYFQKLKIDISYFDKLDIYLKENNIEKPTIYTENICFLYGVLRTDVAILLNLRKKIEKLKQEREFWKGQMNNLEEEYLKKQQKT | not soluble |
| MAHHHHHHMSISVRIRTPKSSTPEQVELNSSGTWGEAAVLLSRKSEVALERLRVLAGFPPKAVDLAADSPLSALKLRANDMLIVQEGEAKVQLGNTGERYVPPAPERAHLTRRRCPADNSCLFHACAYVLRDKSRTEGPQLRQECVQAVLDHPEMFNVNTLGMDPLAYASWLSQKDTWGGAIELEILSFLYKTEMFALDLQSVTVQRFGTGLGYTVRAFLVYTGNHYDCIAMNPVYNSASEREDQTLFSSRDENVLVRAKRFVAEEGQKMKEGKAT | soluble |
| MAHHHHHHMSKEKLAKEKIEKGQHYEAHQLIKSLINRKLQKNQVSSCMSIIFYFSQKMAKAEQYVLLCDLMYQCCTILTQHNIKFSEEYAKKIIEIFNLCPPNSTEEKYKFMNKCILWSTNDDEIFGYLDFHKAIAYAYFEDKKYSLAHNHFIYLEDNEILYKIICLWQKEGYPSESDFFILRTTLCLLVLDKFEQALDLINKFEPNLDRKDVPLPVQIAYLITCSCIYRSAPLYEDVKYKYRLILNYDPDFQKYIGILDDVLFNKRKHDLFSMFQNIFG | not soluble |

Source: the DeepSol protein solubility set
